Laboratory results as given in patent US6746859.

What was measured:
[1] = molecular target: T1, E. coli thioredoxin/human IL-11 fusion protein with enterokinase cleavage spacer (UniProt P20809)
T1 sequence: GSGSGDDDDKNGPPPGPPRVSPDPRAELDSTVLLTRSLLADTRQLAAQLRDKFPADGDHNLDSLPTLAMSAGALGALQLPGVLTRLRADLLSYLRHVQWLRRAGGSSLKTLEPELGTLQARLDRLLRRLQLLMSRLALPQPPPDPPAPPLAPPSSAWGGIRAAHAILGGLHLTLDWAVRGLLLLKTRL

[2] = system: T2, Gly-(Asp4)-Lys-βNA fluorogenic enterokinase substrate
T2 sequence: GDDDDK

bovine-derived enterokinase holoenzyme (heavy and light chains)
EFFICIENCY OF CLEAVAGE (relative molar activities) (relative molar activity) [1]: 1
EFFICIENCY OF CLEAVAGE (relative molar activities) (relative molar activity) [2]: 1
EFFICIENCY OF CLEAVAGE (relative molar activities) (relative molar activity) (Trypsinogen): 100
